From patent US20250059258A1
Changes are numbered by the printed parent chain. One block for each binder: values may come before it.

Key:
[1] = biological target: dimeric human IgG-lambda (Southern Biotech, Birmingham AL); assay: BLI (ForteBio), biotinylated ligand on sensor, as in Example 2
[2] = biological target: Tremfya Fab with a lambda light chain and binding specificity for IL23 (from the monoclonal antibody guselkumab); assay: as above
[3] = biological target: Herceptin Fab with a kappa light chain and binding specificity for Her2/neu (from the monoclonal antibody trastuzumab); assay: as above
[4] = biological target: dimeric human IgG-lambda (Southern Biotech, Birmingham AL); assay: BLI (ForteBio), biotinylated ligand on sensor, 1:1 fit
[5] = biological target: Tremfya Fab with a lambda light chain and binding specificity for IL23 (from the monoclonal antibody guselkumab); assay: as above
[6] = biological target: Herceptin Fab with a kappa light chain and binding specificity for Her2/neu (from the monoclonal antibody trastuzumab); assay: as above
[7] = biological target: Dupixent (IgG4 monoclonal antibody); assay: BLI, biotinylated ligand on sensor; 'Binding affinity (nM)'
[8] = biological target: Ajovy (IgG2 monoclonal antibody); assay: as above
[9] = biological target: Praluent (IgG1 monoclonal antibody); assay: as above

B1: affinity ligand SEQ ID NO: 89 (designed binder)
chain: MGGGGSAAAGDEAQHWENQGAAYAARGDYDRAIEYYGRALELDPNNAWAWWELGVAYAARGDYDRAIEYYERALELDPDDATTWSRLGHAYAARGDYDRAIEYYERALELDPEDETARYLLEHARRARQGQAGQGGGSGLNDIFEAQKIEWHECHHHHHH
modifications: biotinylated (AviTag system)
Kd [1]: < 1 nM
Kd [2]: 8 nM
Kd [3]: 41 nM
Kd [4]: < 1 nM
Kd [5]: 8 nM
Kd [6]: 41 nM

B2: affinity ligand SEQ ID NO: 90 (designed binder)
chain: B1 chain with H15C, G37E, E105V
modifications: biotinylated (AviTag system)
Kd [1]: < 1 nM
Kd [2]: 12 nM
Kd [3]: 51 nM
Kd [4]: < 1 nM
Kd [5]: 12 nM
Kd [6]: 51 nM

B3: affinity ligand SEQ ID NO: 92 (designed binder)
chain: B1 chain with H15R, G37E, D43E, T83A, E102G, D114N
modifications: biotinylated (AviTag system)
Kd [1]: < 1 nM
Kd [2]: 8 nM
Kd [3]: 28 nM
Kd [4]: < 1 nM
Kd [5]: 8 nM
Kd [6]: 28 nM

B4: affinity ligand SEQ ID NO: 156 (designed binder)
chain: MAWAEFRQRLAAIRTRLEALGGSEAELAAFEREIAAFESELQAYAGAGNPEVEALRREAAAIRDELQAYRHNDEAERWYDLGAAYAARGDYDRAIEYYQRALEHDPNDAWAWWELGVAYAARGDYDRAIEYYQRALELDTNNAVAWARLGIAYAARGDYDRAIEYYQRALELDPNNEVARGALEYARRARRHHHHHH
modifications: biotinylated (AviTag system)
Kd [7]: 7 nM
Kd [8]: 224 nM
Kd [9]: < 1 nM

B6: affinity ligand SEQ ID NO: 41 (designed binder)
chain: MAQAAAGDEAQRWETLGAAYAARGDYDRAIEYYQRALELDPNNAWAWWELGVAYAARGDYDRAIEYYQRALELDPDDAAAWRRLGHAYAARGDYDRAIEYYERALELDPEDELARRILEDARRARQGQAGQGGGSGLNDIFEAQKIEWHECHHHHHH
modifications: biotinylated (AviTag system)
Kd [1]: 3 nM
Kd [2]: 24 nM
Kd [3]: 15 nM

B7: affinity ligand SEQ ID NO: 157 (designed binder)
chain: MGLAEAAAREAAARAADEAERWYDLGAAYAARGDYDRAIEYYQRALEHDPNDAWAWWELGVAYAARGDYDRAIEYYQRALELDTNNAVAWARLGIAYAARGDYDRAIEYYQRALELDPNNEVARGALEYARRARRHHHHHH
modifications: biotinylated (AviTag system)
Kd [7]: 8 nM
Kd [8]: 270 nM
Kd [9]: < 1 nM

B9: affinity ligand SEQ ID NO: 155 (designed binder)
chain: MGDEAERWYDLGAAYAARGDYDRAIEYYQRALEHDPNDAWAWWELGVAYAARGDYDRAIEYYQRALELDTNNAVAWARLGIAYAARGDYDRAIEYYQRALELDPNNEVARGALEYARRARRCHHHHHH
modifications: biotinylated (AviTag system)
Kd [7]: 32 nM
Kd [8]: 117 nM
Kd [9]: < 1 nM

More lines, now with the values ahead:

Kd [7]: 31 nM
Kd [8]: 654 nM
Kd [9]: < 1 nM
B5: affinity ligand SEQ ID NO: 161 (designed binder)
chain: B4 chain with H104L, T140L, G181D
modifications: biotinylated (AviTag system)

Kd [7]: 25 nM
Kd [8]: 665 nM
Kd [9]: < 1 nM
B8: affinity ligand SEQ ID NO: 162 (designed binder)
chain: B7 chain with H48L, T84L, G125D
modifications: biotinylated (AviTag system)

Kd [7]: 176 nM
Kd [8]: 282 nM
Kd [9]: < 1 nM
B10: affinity ligand SEQ ID NO: 158 (designed binder)
chain: B9 chain with H34L, T70L, G111D
modifications: biotinylated (AviTag system)

Kd [7]: 9 nM
Kd [8]: 436 nM
Kd [9]: < 1 nM
B11: affinity ligand SEQ ID NO: 159 (designed binder)
chain: MGHHHHHHDEAERWYDLGAAYAARGDYDRAIEYYQRALEHDPNDAWAWWELGVAYAARGDYDRAIEYYQRALELDTNNAVAWARLGIAYAARGDYDRAIEYYQRALELDPNNEVARGALEYARRARRC
modifications: biotinylated (AviTag system)

Kd [7]: 24 nM
Kd [8]: 543 nM
Kd [9]: < 1 nM
B12: affinity ligand SEQ ID NO: 160 (designed binder)
chain: B11 chain with H40L, T76L, G117D
modifications: biotinylated (AviTag system)
